Molecular target: GST–XJTGB3 fusion protein (BSMV Xinjiang strain TGB3) (barley stripe mosaic virus, Xinjiang strain)
Assay: pull-down

“XJTGB1_(T395A/T401A) double mutant, C-terminal His-tagged (natural protein)” gave a TGB3 protein-binding efficiency compared with wt XJTGB1 of 40% and a percent less effective binding than wt XJTGB1 of 40 % less.

Reference: article PMC4507770
